Two substances from patent US20210247395A1 can be followed below.

For the assay, the target named is NP binding epitope peptide of human Influenza B, residues 31-43 of Nucleoprotein (…) (Influenza B virus (strain B/Lee/1940)). In words: ELISA on overlapping peptides of NP (strain B/Lee/1940).

Substance “Acris mAb 3IF18-InB12, clone InB12 (murine anti-Influenza B nucleoprotein monoclonal antibody)” yielded an OD492 nm of over 0.4 OD492 nm.

Substance “GenWay mAb GWB-T00595, clone B265M (murine anti-Influenza B nucleoprotein monoclonal antibody)” showed an OD492 nm of over 0.4 OD492 nm.
